Experimental data reported in patent US20240317834A1, “COMPOSITIONS AND METHODS FOR NEUROLOGICAL DISEASES” (CODA BIOTHERAPEUTICS, INC., priority 2020, published 2024).
Numbering of substitutions follows the chain as printed. Names and notes keep the numbering of the source.

System: Lenti-X 293T cells
Assay: YFP fluorescence quenching anion reporter plate reader assay of engineered receptors stimulated with acetylcholine or a non-native ligand
Assay type: cell-based
Settings: for percent quench of YFP fluorescence, 30 nM TC-6683: TC-6683 30 nM; for percent quench of YFP fluorescence, 300 nM TC-6683: TC-6683 300 nM; for percent quench of YFP fluorescence, 3 uM TC-6683: TC-6683 3 uM; for percent quench of YFP fluorescence, 30 uM TC-6683: TC-6683 30 uM; for percent quench of YFP fluorescence, 100 uM TC-6683: TC-6683 100 uM; for percent quench of YFP fluorescence, 10 uM ach: acetylcholine 10 uM; for percent quench of YFP fluorescence, 100 uM ach: acetylcholine 100 uM; for percent quench of YFP fluorescence, 1 mM ach: acetylcholine 1 mM; for percent quench of YFP fluorescence, 3 mM ach: acetylcholine 3 mM
Outline: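 YFP quench was followed for about 1 min 43 s after ligand delivered in iodide-based ECS, pH 7.2. Values are end-of-read fluorescence (last 10 s) divided by the pre-ligand baseline (15 s). Cells were LX293T, transfected with receptor DNA a day before the assay.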

B1: CODA342: engineered chimeric LGIC receptor, L131R in SEQ ID NO: 33 (protein)
chain: MRCSPGGVWLALAASLLHVSLQGEFQRKLYKELVKNYNPLERPVANDSQPLTVYFSLSLLQIMDVDEKNQVLTTNIWLQMSWTDHYLQWNVSEYPGVKTVRFPDGQIWKPDILLYNSADERFDATFHTNVRVNSSGHCQYLPPGIFKSSCPMDLKNFPMDVQTCKLKFGSWSYGGWSLDLQMQEADISGYIPNGEWDLVGIPGKRSERFYECCKEPYPDVTFTVTMRRRMGYYLIQMYIPSLLIVILSWISFWINMDAAPARVGLGITTVLTMTTQSSGSRASLPKVSYVKAIDIWMAVCLLFVFSALLEYAAVNFVSRQHKELLRFRRKRRHHKSPMLNLFQEDEAGEGRFNFSAYGMGPACLQAKDGISVKGANNSNTTNPPPAPSKSPEEMRKLFIQRAKKIDKISRIGFPMAFLIFNMFYWIIYKIVRREDVHNQ
modifications: synthetic sequence of chimeric LGIC
For B1, the “YFP fluorescence quenching using CNL001” value (1 nM CNL001, first column) was 23.532%, the “YFP fluorescence quenching using CNL001” value (1 nM CNL001, second column) was 26.054% and the “YFP fluorescence quenching using TC-5619/Bradanicline” value (1 nM brd) was −7.83%. The “YFP fluorescence quenching using TC-5619/Bradanicline” value (3 nM brd) was −12.89%, the “YFP fluorescence quenching using Varenicline” value (3 nM var, first column) was 0.271 and the “YFP fluorescence quenching using Varenicline” value (3 nM var, second column) was −3.613. The “YFP fluorescence quenching using CNL001” value (10 nM CNL001, first column) was 43.69%, the “YFP fluorescence quenching using CNL001” value (10 nM CNL001, second column) was 54.016% and the “YFP fluorescence quenching using TC-5619/Bradanicline” value (10 nM brd) was −10.47%. The “YFP fluorescence quenching using TC-5619/Bradanicline” value (30 nM brd) was 59.48%, the “YFP fluorescence quenching using Facinicline” value (30 nM fac) was −6.2 and the “YFP fluorescence quenching using Varenicline” value (30 nM var, first column) was −4.935. For the same molecule, the “YFP fluorescence quenching using Varenicline” value (30 nM var, second column) was −4.363, the “YFP fluorescence quenching using CNL001” value (50 nM CNL001, first column) was 59.955% and the “YFP fluorescence quenching using CNL001” value (50 nM CNL001, second column) was 56.091%. The “YFP fluorescence quenching using ABT-126” value (50 nM abt) was −18.14%, the “YFP fluorescence quenching using CNL001” value (100 nM CNL001, first column) was 64.536% and the “YFP fluorescence quenching using CNL001” value (100 nM CNL001, second column) was 58.987%. For the same molecule, the “YFP fluorescence quenching using CNL002” value (100 nM CNL002) was −17.2%, the “YFP fluorescence quenching using ABT-126” value (100 nM abt) was −18.14% and the “YFP fluorescence quenching using AZD-0328” value (100 nM azd0328) was 1.79%. For the same molecule, the “YFP fluorescence quenching using TC-5619/Bradanicline” value (100 nM brd) was 70.19%, the “YFP fluorescence quenching using ABT-126” value (300 nM abt) was −0.81% and the “YFP fluorescence quenching using AZD-0328” value (300 nM azd0328) was 66.58%. For the same molecule, the “YFP fluorescence quenching using TC-5619/Bradanicline” value (300 nM brd) was 75.11%, the “YFP fluorescence quenching using Facinicline” value (300 nM fac) was 76.75 and the “YFP fluorescence quenching using Varenicline” value (300 nM var, first column) was 0.282. The “YFP fluorescence quenching using Varenicline” value (300 nM var, second column) was 2.32, the “YFP fluorescence quenching using ABT-126” value (500 nM abt) was 23.29% and the “YFP fluorescence quenching using Varenicline” value (500 nM var, first column) was 23.777. For the same molecule, the “YFP fluorescence quenching using Varenicline” value (500 nM var, second column) was 18.376, the “YFP fluorescence quenching using CNL001” value (1 uM CNL001, first column) was 65.987% and the “YFP fluorescence quenching using CNL001” value (1 uM CNL001, second column) was 64.312%. For the same molecule, the “YFP fluorescence quenching using CNL002” value (1 uM CNL002) was 8.12%, the “YFP fluorescence quenching using ABT-126” value (1 uM abt) was 45.76% and the “YFP fluorescence quenching using TC-5619/Bradanicline” value (1 uM brd) was 77.42%. For the same molecule, the “YFP fluorescence quenching using TC-6987” value (1 uM tc6987) was 2.51, the “YFP fluorescence quenching using Varenicline” value (1 uM var, first column) was 66.17 and the “YFP fluorescence quenching using Varenicline” value (1 uM var, second column) was 66.088. For the same molecule, the “YFP fluorescence quenching using ABT-126” value (3 uM abt) was 53.03%, the “YFP fluorescence quenching using ABT-126” value (10 uM abt) was 64.08% and the “YFP fluorescence quenching using Facinicline” value (10 uM fac) was 82.16. The “YFP fluorescence quenching using TC-6987” value (10 uM tc6987) was 46.22, the “YFP fluorescence quenching using CNL002” value (30 uM CNL002) was 57.24% and the “YFP fluorescence quenching using ABT-126” value (30 uM abt) was 71.98%. For the same molecule, the “YFP fluorescence quenching using AZD-0328” value (30 uM azd0328) was 80.55%, the “YFP fluorescence quenching using Facinicline” value (30 uM fac) was 81.71 and the “YFP fluorescence quenching using ABT-126” value (50 uM abt) was 73.98%. The “YFP fluorescence quenching using ABT-126” value (100 uM abt) was 73.51%, the “YFP fluorescence quenching using TC-6987” value (500 uM tc6987) was 68.33 and the “percent quench of YFP fluorescence, 30 nM TC-6683” value was −16.26%. The “percent quench of YFP fluorescence, 300 nM TC-6683” value was −22.45%, the “percent quench of YFP fluorescence, 3 uM TC-6683” value was −13.48% and the “percent quench of YFP fluorescence, 30 uM TC-6683” value was −12.68%. The “percent quench of YFP fluorescence, 100 uM TC-6683” value was −10.33%, the “percent quench of YFP fluorescence, 10 uM ach” value was −2.57% and the “percent quench of YFP fluorescence, 100 uM ach” value was −3.18%. The “percent quench of YFP fluorescence, 1 mM ach” value was 78.98% and the “percent quench of YFP fluorescence, 3 mM ach” value was 75.75%.

B2: CODA337: engineered chimeric LGIC receptor, L131N in SEQ ID NO: 33 (protein)
chain: B1 chain with R131N
modifications: synthetic sequence of chimeric LGIC
For B2, the “YFP fluorescence quenching using CNL001” value (1 nM CNL001, first column) was 76.917%, the “YFP fluorescence quenching using CNL001” value (1 nM CNL001, second column) was 79.554% and the “YFP fluorescence quenching using TC-5619/Bradanicline” value (3 nM brd) was 71.02%. For the same molecule, the “YFP fluorescence quenching using Varenicline” value (3 nM var, first column) was 3.093, the “YFP fluorescence quenching using Varenicline” value (3 nM var, second column) was 12.327 and the “YFP fluorescence quenching using CNL001” value (10 nM CNL001, first column) was 79.479%. For the same molecule, the “YFP fluorescence quenching using CNL001” value (10 nM CNL001, second column) was 79.506%, the “YFP fluorescence quenching using TC-5619/Bradanicline” value (30 nM brd) was 78.43% and the “YFP fluorescence quenching using Facinicline” value (30 nM fac) was 82.25. For the same molecule, the “YFP fluorescence quenching using Varenicline” value (30 nM var, first column) was 77.097, the “YFP fluorescence quenching using Varenicline” value (30 nM var, second column) was 77.653 and the “YFP fluorescence quenching using CNL001” value (50 nM CNL001, first column) was 81.465%. For the same molecule, the “YFP fluorescence quenching using CNL001” value (50 nM CNL001, second column) was 81.297%, the “YFP fluorescence quenching using ABT-126” value (50 nM abt) was −11.64% and the “YFP fluorescence quenching using CNL001” value (100 nM CNL001, first column) was 82.619%. The “YFP fluorescence quenching using CNL001” value (100 nM CNL001, second column) was 81.722%, the “YFP fluorescence quenching using CNL002” value (100 nM CNL002) was 76.37% and the “YFP fluorescence quenching using ABT-126” value (100 nM abt) was 34.79%. For the same molecule, the “YFP fluorescence quenching using AZD-0328” value (100 nM azd0328) was 82.1%, the “YFP fluorescence quenching using ABT-126” value (300 nM abt) was 60.08% and the “YFP fluorescence quenching using AZD-0328” value (300 nM azd0328) was 82.52%. The “YFP fluorescence quenching using TC-5619/Bradanicline” value (300 nM brd) was 77.12%, the “YFP fluorescence quenching using Facinicline” value (300 nM fac) was 83.59 and the “YFP fluorescence quenching using Varenicline” value (300 nM var, first column) was 79.446. For the same molecule, the “YFP fluorescence quenching using Varenicline” value (300 nM var, second column) was 79.998, the “YFP fluorescence quenching using Varenicline” value (500 nM var, first column) was 80.691 and the “YFP fluorescence quenching using Varenicline” value (500 nM var, second column) was 80.309. For the same molecule, the “YFP fluorescence quenching using CNL001” value (1 uM CNL001, first column) was 81.96%, the “YFP fluorescence quenching using CNL001” value (1 uM CNL001, second column) was 81.773% and the “YFP fluorescence quenching using CNL002” value (1 uM CNL002) was 80.18%. The “YFP fluorescence quenching using ABT-126” value (1 uM abt) was 65.99%, the “YFP fluorescence quenching using TC-6987” value (1 uM tc6987) was 79.06 and the “YFP fluorescence quenching using Varenicline” value (1 uM var, first column) was 80.258. The “YFP fluorescence quenching using Varenicline” value (1 uM var, second column) was 79.509, the “YFP fluorescence quenching using TC-6987” value (10 uM tc6987) was 82.36 and the “YFP fluorescence quenching using CNL002” value (30 uM CNL002) was 80.93%. The “YFP fluorescence quenching using AZD-0328” value (30 uM azd0328) was 82.32%, the “YFP fluorescence quenching using Facinicline” value (30 uM fac) was 82.82 and the “YFP fluorescence quenching using TC-6987” value (500 uM tc6987) was 80.19. The “percent quench of YFP fluorescence, 30 nM TC-6683” value was −11.51%, the “percent quench of YFP fluorescence, 300 nM TC-6683” value was −13.17% and the “percent quench of YFP fluorescence, 3 uM TC-6683” value was −5.46%. For the same molecule, the “percent quench of YFP fluorescence, 30 uM TC-6683” value was 8.53%, the “percent quench of YFP fluorescence, 100 uM TC-6683” value was 14.41% and the “percent quench of YFP fluorescence, 10 uM ach” value was 28.32%. The “percent quench of YFP fluorescence, 100 uM ach” value was 81.8%, the “percent quench of YFP fluorescence, 1 mM ach” value was 71.22% and the “percent quench of YFP fluorescence, 3 mM ach” value was 73.7%.
